The source of these data is paper PMC3287200 (Nucleic Acids Research, 2011).

The target of data set [1] is T1, BsHfq-His (Bacillus subtilis, UniProt O31796 1-73).
T1 sequence: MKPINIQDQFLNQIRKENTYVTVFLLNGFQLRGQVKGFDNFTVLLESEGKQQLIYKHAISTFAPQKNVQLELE
Put plainly: UV cross-linking.

In data set [2] the target is T2, BsHfq-His Q30A (Bacillus subtilis, UniProt O31796 1-73, Q30A).
T2 sequence: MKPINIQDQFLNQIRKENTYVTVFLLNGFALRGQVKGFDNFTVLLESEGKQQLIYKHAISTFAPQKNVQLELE
Put plainly: EMSA. A general note: Mobility shift assays separate free from complexed probe on a gel.

Data set [3] concerns the target T3, BsHfq-His F29A (Bacillus subtilis, UniProt O31796 1-73, F29A).
T3 sequence: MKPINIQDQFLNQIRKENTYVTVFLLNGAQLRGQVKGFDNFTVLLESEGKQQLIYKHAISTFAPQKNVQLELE
Put plainly: EMSA.

The target of data set [4] is T4, BsHfq-His F24A (Bacillus subtilis, UniProt O31796 1-73, F24A).
T4 sequence: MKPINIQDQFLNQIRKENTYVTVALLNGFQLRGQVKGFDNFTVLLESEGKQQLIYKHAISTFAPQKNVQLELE
Kind of data set: EMSA.

The target in data set [5] is T5, BsHfq-His R32A (Bacillus subtilis, UniProt O31796 1-73, R32A).
T5 sequence: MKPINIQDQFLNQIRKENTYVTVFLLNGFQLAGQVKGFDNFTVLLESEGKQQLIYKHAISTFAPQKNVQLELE
Kind of data set: EMSA.

Data set [6] deals with T6, BsHfq-His N40A (Bacillus subtilis, UniProt O31796 1-73, N40A).
T6 sequence: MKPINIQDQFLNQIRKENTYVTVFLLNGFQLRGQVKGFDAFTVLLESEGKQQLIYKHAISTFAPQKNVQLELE
Put plainly: EMSA.

Data set [7] deals with T7, BsHfq-His F41A (Bacillus subtilis, UniProt O31796 1-73, F41A).
T7 sequence: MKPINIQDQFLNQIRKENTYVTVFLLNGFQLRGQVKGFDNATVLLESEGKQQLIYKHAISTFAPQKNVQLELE
Put plainly: EMSA.

Data set [8] deals with T1, BsHfq-His. Put plainly: UV cross-linking. The source holds these as a separate data set.
Data set [9] deals with the molecule itself. Kind of data set: SEC + other: SDS-PAGE.
The target in data set [10] is T1, BsHfq-His. Kind of data set: EMSA.
The target in data set [11] is T8, BsHfq (GST removed) (Bacillus subtilis, UniProt O31796 1-73).
T8 sequence: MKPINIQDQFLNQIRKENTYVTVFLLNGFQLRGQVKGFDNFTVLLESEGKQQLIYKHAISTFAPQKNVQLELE
Put plainly: EMSA.

B1: 49R (structured_RNA)
RNA: GGGCGAAUUCUAGAGAGAGAUUAGAUCCUGUCCGCGGCUAAAGCU
With B1, the binding result in [1] is recorded as “binds”; in data set [2], “no binding”; in data set [3], “no binding”; in data set [4], “no binding”; in data set [5] it was “no binding”; in data set [6] it was “binds”. Besides, the binding result in data set [7] is on record as “binds”.

B2: 49R-A (ssRNA)
RNA: GGGCGAAUUCUAGAGAAAGAUUAGAUCCUGUCCGCGGCUAAAGCU
In the case of B2, the binding result in data set [8] was “binds”.

B3: BsHfq-His H57A (natural protein, Bacillus subtilis)
chain: MKPINIQDQFLNQIRKENTYVTVFLLNGFQLRGQVKGFDNFTVLLESEGKQQLIYKAAISTFAPQKNVQLELE
For B3, the “ability to form hexameric structure, percent of wild-type” value in [9] was ~30 % of wild-type.

B4: BsHfq-His R32A (natural protein, Bacillus subtilis)
chain: MKPINIQDQFLNQIRKENTYVTVFLLNGFQLAGQVKGFDNFTVLLESEGKQQLIYKHAISTFAPQKNVQLELE
In general, stoichiometry N refers to the number of molecules, sites or subunits per partner or assembly. B4: the “stoichiometry N” value in data set [9] came to 6.

B5: C-terminal 6x His fusion BsHfq, wild type (natural protein, Bacillus subtilis)
chain: MKPINIQDQFLNQIRKENTYVTVFLLNGFQLRGQVKGFDNFTVLLESEGKQQLIYKHAISTFAPQKNVQLELE
On to B5, for which the “stoichiometry N” value in data set [9] was found to be 6.

B6: BsHfq-His F24A (natural protein, Bacillus subtilis)
chain: MKPINIQDQFLNQIRKENTYVTVALLNGFQLRGQVKGFDNFTVLLESEGKQQLIYKHAISTFAPQKNVQLELE
In the case of B6, in data set [9], the “stoichiometry N” value is 6.

B7: BsHfq-His F41A (natural protein, Bacillus subtilis)
chain: MKPINIQDQFLNQIRKENTYVTVFLLNGFQLRGQVKGFDNATVLLESEGKQQLIYKHAISTFAPQKNVQLELE
Regarding B7, in [9], the “stoichiometry N” value came to 6.

B8: BsHfq-His F29A (natural protein, Bacillus subtilis)
chain: MKPINIQDQFLNQIRKENTYVTVFLLNGAQLRGQVKGFDNFTVLLESEGKQQLIYKHAISTFAPQKNVQLELE
Consider B8, for which the “stoichiometry N” value in data set [9] amounted to 6.

B9: BsHfq-His K56A (natural protein, Bacillus subtilis)
chain: MKPINIQDQFLNQIRKENTYVTVFLLNGFQLRGQVKGFDNFTVLLESEGKQQLIYAHAISTFAPQKNVQLELE
As to B9, in data set [9], the “ability to form hexameric structure, percent of wild-type” value was ~60 % of wild-type.

B10: BsHfq-His Q30A (natural protein, Bacillus subtilis)
chain: MKPINIQDQFLNQIRKENTYVTVFLLNGFALRGQVKGFDNFTVLLESEGKQQLIYKHAISTFAPQKNVQLELE
Take B10: in [9], the “stoichiometry N” value turned out to be 6.

B11: BsHfq-His N40A (natural protein, Bacillus subtilis)
chain: MKPINIQDQFLNQIRKENTYVTVFLLNGFQLRGQVKGFDAFTVLLESEGKQQLIYKHAISTFAPQKNVQLELE
On to B11, for which the “stoichiometry N” value in data set [9] was found to be 6.

B12: 28f (ssRNA)
RNA: GGGACACAAUGGACGAGGGAUUUGGGUGAUAUUUUUAGUCGGUCAUAACGGCCGACAUGAGAG
B12: the binding result in data set [10] is given as “no binding”.

B13: AU5G (ssRNA)
RNA: AUUUUUG
With B13, the binding result in data set [11] was “no binding”.
